T1: human MerTK overexpressed on CHO cells (CHO-huMerTK OE) (human, UniProt Q12866 21-999)
T1 construct: also called human MerTK overexpressing CHO cells; not shown: mGFP tag of the lentiviral ORF clone
T1 sequence: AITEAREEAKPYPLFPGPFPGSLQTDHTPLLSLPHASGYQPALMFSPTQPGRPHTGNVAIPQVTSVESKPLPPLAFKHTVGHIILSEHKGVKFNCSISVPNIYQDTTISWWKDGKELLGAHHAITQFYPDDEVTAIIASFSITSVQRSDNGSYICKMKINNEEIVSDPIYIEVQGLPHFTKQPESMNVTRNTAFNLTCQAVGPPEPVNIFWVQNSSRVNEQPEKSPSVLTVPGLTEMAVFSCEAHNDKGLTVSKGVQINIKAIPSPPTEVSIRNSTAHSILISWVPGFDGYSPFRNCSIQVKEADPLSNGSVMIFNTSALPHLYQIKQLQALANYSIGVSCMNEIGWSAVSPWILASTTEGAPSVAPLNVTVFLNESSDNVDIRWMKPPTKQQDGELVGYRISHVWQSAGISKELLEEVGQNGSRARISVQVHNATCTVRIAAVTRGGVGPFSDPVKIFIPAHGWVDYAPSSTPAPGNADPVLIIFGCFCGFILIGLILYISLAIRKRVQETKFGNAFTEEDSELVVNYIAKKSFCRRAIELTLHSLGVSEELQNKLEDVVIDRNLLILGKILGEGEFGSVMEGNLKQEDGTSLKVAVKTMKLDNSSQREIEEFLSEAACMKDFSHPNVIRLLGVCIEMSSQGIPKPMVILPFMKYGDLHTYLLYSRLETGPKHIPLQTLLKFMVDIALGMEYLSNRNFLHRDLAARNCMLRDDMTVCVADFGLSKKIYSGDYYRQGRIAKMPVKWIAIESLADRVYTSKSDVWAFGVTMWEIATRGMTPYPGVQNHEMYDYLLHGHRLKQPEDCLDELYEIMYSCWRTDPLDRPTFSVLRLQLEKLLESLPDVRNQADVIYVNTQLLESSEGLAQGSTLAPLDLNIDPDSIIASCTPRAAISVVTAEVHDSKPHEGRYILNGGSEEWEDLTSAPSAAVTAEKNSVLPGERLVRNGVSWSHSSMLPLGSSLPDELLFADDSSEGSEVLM

T2: human MerTK on M2c-differentiated human macrophages (human, UniProt Q12866 21-999)
T2 construct: Endogenous MerTK on primary macrophages differentiated from human monocytes with M-CSF
T2 sequence: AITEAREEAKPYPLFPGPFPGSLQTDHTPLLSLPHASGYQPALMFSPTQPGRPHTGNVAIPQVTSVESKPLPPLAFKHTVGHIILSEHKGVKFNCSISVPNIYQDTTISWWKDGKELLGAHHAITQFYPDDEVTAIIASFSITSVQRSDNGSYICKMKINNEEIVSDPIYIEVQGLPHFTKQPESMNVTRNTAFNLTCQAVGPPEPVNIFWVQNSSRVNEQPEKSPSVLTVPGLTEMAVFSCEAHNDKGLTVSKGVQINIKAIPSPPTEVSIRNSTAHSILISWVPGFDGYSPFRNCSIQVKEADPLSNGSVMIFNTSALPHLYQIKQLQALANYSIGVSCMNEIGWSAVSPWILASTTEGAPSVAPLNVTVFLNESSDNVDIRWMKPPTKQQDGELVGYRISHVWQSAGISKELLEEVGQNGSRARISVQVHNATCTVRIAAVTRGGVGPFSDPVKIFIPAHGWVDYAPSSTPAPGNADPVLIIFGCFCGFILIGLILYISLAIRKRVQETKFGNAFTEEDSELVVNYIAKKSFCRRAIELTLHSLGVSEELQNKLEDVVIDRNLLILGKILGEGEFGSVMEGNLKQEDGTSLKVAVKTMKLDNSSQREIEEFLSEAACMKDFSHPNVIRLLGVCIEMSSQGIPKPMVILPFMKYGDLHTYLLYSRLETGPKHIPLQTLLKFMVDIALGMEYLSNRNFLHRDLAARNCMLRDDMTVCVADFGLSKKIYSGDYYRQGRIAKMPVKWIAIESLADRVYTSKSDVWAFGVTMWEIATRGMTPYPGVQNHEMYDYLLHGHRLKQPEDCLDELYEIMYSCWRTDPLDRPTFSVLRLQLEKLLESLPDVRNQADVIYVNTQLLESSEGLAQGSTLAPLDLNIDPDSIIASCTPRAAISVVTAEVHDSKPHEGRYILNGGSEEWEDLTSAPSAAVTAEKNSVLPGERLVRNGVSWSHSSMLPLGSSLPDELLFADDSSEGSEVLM

T3: recombinant murine MerTK extracellular domain (mouse, UniProt Q60805 19-497)
T3 construct: The entry starts with the native signal peptide; also called moMerTK; murine MerTK ECD; not shown: tag
T3 sequence: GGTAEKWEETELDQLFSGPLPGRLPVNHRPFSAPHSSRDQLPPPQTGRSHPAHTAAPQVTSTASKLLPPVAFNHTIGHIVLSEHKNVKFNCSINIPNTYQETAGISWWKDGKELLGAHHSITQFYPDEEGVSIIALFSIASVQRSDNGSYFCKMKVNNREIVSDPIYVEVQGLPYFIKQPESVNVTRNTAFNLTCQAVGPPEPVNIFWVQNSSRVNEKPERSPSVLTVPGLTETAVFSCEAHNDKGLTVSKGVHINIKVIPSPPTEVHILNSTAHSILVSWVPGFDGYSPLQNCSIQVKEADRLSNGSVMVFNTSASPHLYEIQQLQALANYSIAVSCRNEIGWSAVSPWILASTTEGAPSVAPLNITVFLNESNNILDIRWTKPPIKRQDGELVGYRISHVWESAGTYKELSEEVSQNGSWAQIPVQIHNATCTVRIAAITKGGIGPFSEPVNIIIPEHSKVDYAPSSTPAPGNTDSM

T4: recombinant human MerTK extracellular domain (human, UniProt Q12866 21-505)
T4 construct: The entry starts with the native signal peptide, while the construct used a heterologous signal peptide; also called huMerTK; human MerTK ECD; not shown: tag
T4 sequence: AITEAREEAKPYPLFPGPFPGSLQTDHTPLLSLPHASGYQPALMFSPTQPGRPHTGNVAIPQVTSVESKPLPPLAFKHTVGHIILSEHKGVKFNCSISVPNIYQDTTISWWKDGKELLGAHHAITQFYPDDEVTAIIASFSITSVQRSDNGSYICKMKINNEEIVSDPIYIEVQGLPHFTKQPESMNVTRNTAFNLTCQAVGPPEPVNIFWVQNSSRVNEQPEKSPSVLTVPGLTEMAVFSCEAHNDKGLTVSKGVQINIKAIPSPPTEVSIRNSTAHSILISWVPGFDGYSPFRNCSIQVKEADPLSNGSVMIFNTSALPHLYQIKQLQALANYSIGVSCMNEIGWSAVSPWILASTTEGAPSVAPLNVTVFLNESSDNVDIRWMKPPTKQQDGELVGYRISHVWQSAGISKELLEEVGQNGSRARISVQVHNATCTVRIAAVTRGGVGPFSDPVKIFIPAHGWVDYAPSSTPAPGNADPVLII

T5: recombinant cynomolgus MerTK extracellular domain (cynomolgus, UniProt Q12866 21-505 (human entry))
T5 construct: The entry starts with the native signal peptide; also called cynoMerTK; cyno MerTK ECD; not shown: tag
T5 chain: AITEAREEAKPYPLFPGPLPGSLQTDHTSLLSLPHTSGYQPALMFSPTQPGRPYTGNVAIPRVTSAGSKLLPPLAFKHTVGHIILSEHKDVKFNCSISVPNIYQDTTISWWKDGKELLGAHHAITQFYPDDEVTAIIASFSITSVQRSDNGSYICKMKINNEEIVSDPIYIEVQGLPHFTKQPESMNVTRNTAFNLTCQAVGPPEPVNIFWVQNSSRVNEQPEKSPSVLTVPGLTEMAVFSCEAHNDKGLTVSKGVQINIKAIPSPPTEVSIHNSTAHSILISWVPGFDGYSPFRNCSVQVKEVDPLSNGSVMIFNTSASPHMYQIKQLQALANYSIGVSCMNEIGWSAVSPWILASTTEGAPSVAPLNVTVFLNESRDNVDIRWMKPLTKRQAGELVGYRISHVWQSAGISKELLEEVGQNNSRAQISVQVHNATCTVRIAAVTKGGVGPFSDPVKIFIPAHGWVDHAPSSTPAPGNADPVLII


How the values were obtained:
[1] = biological target: T1, human MerTK overexpressed on CHO cells …; assay: FACS, Dylight650-conjugated antibody titrated on CHO-huMerTK OE cells; Kd fitted in Prism from MFI
Source text: (§1) Human macrophages were differentiated from human monocytes for 7 days in the presence of human M-CSF, resulting in M2c-differentiated human macrophages. After 7 days, the differentiated human macrophages were harvested (by scraping), resuspended in PBS, and plated on 96-well plates for use. CHO cells overexpressing human MerTK (CHO-huMerTK OE) or M2c-differentiated human macrophages were stained with Dylight650-conjugated monovalent anti-MerTK antibodies or bivalent anti-MerTK antibodies (i.e., anti-MerTK antibodies comprising two full-length heavy chains and two full-length light chains) for 30 min on ice. A range of antibody concentrations were used in these studies to obtain binding curves. […] Cells were fixed and then acquired on a BD FACS Canto II cytometer. The mean fluorescence intensity (MFI) was calculated using FlowJo software and Kd value was calculated using Prism software.

[2] = biological target: T2, human MerTK on M2c-differentiated human …; assay: FACS, Dylight650-conjugated antibody titrated on M2c-differentiated human macrophages; Kd fitted in Prism from MFI
Source text: as §1

[3] = biological target: T2, human MerTK on M2c-differentiated human …; assay: cell-based or functional assay
[4] = biological target: T1, human MerTK overexpressed on CHO cells …; assay: FACS, Dylight650-conjugated antibody on CHO-huMerTK OE cells, MFI against Ab concentration
Source text: as §1

[5] = biological target: T2, human MerTK on M2c-differentiated human …; assay: cell-based or functional assay; remark: listed apart in the source
[6] = biological target: T3, recombinant murine MerTK extracellular …; assay: SPR (Carterra LSA), antibody immobilised on an HC30 chip, MerTK ECD as analyte
Procedure: (§2) Binding kinetics of monovalent anti-MerTK antibodies of the present disclosure to human, cyno, and murine MerTK were evaluated using a Carterra LSA instrument. […] A HC30 sensor chip (Carterra) was activated using the single channel flow cell with a 7-minute injection of a 1:1:1 mixture of 100 mM MES pH 5.5, 100 mM sulfo-NHS, 400 mM EDC (all reconstituted in MES pH 5.5; 100 μl of each mixed in vial immediately before running assay). After switching to the multi-channel array flow cell, the antibodies were injected over the activated chip in a 96-spot array for 15 minutes. A duplicate injection of the antibodies on a second block of the chip was spotted as before. The remaining unconjugated active groups on the chip were then blocked by injecting 1M Ethanolamine pH 8.5 (Carterra) for 7 minutes using the single channel flow cell.
After priming with running buffer (HBS-TE, Carterra) with 0.5 mg/ml BSA (Sigma), the immobilized anti-MerTK antibodies were tested for their ability to bind to several forms of recombinant MerTK extracellular domain, including that of human, cynomolgus, and mouse orthologs as described above. Estimates of affinity were generated by injecting each analyte over the entire antibody array using the single channel flow cell. […] Data were processed and analyzed using NextGenKIT high-throughput kinetics analysis software (Carterra).

[7] = biological target: T2, human MerTK on M2c-differentiated human …; assay: cell-based or functional assay; remark: listed apart in the source
[8] = biological target: T4, recombinant human MerTK extracellular …; assay: SPR (Carterra LSA), antibody immobilised on an HC30 chip, MerTK ECD as analyte; estimate from a 1:1 fit
Procedure: as §2
(§3) After priming with running buffer (HBS-TE, Carterra) with 0.5 mg/ml BSA (Sigma), the immobilized anti-MerTK antibodies were tested for their ability to bind to several forms of recombinant MerTK extracellular domain, including that of human, cynomolgus, and mouse orthologs as described above. Estimates of affinity were generated by injecting each analyte over the entire antibody array using the single channel flow cell. […] Dissociation was followed for 300 seconds before regenerating after each injection with 2×30 seconds of 10 mM Glycine pH2.5. Three buffer blanks were run between each series (one species per series). After all concentrations of all three species of MerTK were injected, a duplicate set of injections was performed, so that each concentration for all three species was injected in widely spaced duplicates. Data were processed and analyzed using NextGenKIT high-throughput kinetics analysis software (Carterra).

[9] = biological target: T5, recombinant cynomolgus MerTK …; assay: as above
Procedure: as §2, §3

[10] = biological target: T2, human MerTK on M2c-differentiated human …; assay: FACS on M2c-differentiated human macrophages; reference is monovalent MTK-33.11
Source text: as §1

[11] = biological target: T3, recombinant murine MerTK extracellular …; assay: SPR (Carterra LSA), antibody immobilised on an HC30 chip, MerTK ECD as analyte; estimate from a 1:1 fit
Procedure: as §2, §3

[12] = biological target: T1, human MerTK overexpressed on CHO cells …; assay: FACS on CHO-huMerTK OE cells; reference is monovalent MTK-33.11
Source text: as §1

Kd [1] | Kd [2] | Efferocytosis blocking Average IC50 [3] | EC50 (read off the curve) [4] | Average pAKT IC50 (nM) in the presence of huGas6 [5] | binding result [6] | Average fold change in pAKT activity in the absence of huGas6 [7] | Kd [8] | Kd [9] | fold higher affinity than monovalent MTK-33.11 [10] | Kd [11] | fold higher affinity than monovalent MTK-33.11 [12] | Binder
42.5 nM | 51.9 nM | 0.436 nM | ~20 nM | 3.22 nM | no binding | 1.57 fold | 50 nM | 60 nM | – | – | – | bivalent anti-MerTK antibody MTK-16.2 LALAPS (antibody, human IgG1, kappa, L234A L235A, V domains shown, Two full-length heavy chains and two full-length light chains, human IgG1 LALAPS; Dylight650-conjugated in the FACS assay; also called MTK-16.2 bivalent LALAPS; MTK-16.2 full IgG) VH: QVQLVQSGSELKKPGASVKVSCKASGYTFTNHGMNWVRQAPGQGLEWMGWINTYTGEPTYADDFKGRFVFSLDTSVSTAYLQISSLKAEDTAVYYCARKGVTAARYFDYWGQGTLVTVSS VL: DIQMTQSPSSLSASVGDRVTITCRASQNVRTAVAWYQQKPGKAPKRLIYLASNRHTGVPSRFSGSGSGTEFTLTISNLQPEDFATYYCLQHWNYPLTFGGGTKLEIKR
40.5 nM | 77.8 nM | 37.9 nM | – | 15.3 nM | no binding | 1.22 fold | 50 nM | 60 nM | – | – | – | monovalent anti-MerTK antibody MTK-16.2 LALAPS (antibody, human IgG1, kappa, L234A L235A, One-armed antibody, human IgG1 LALAPS; Dylight650-conjugated in the FACS assay; also called MTK-16.2 monovalent LALAPS; MTK-16.2 monoarm) heavy: not shown light: DIQMTQSPSSLSASVGDRVTITCRASQNVRTAVAWYQQKPGKAPKRLIYLASNRHTGVPSRFSGSGSGTEFTLTISNLQPEDFATYYCLQHWNYPLTFGGGTKLEIKRTVAAPSVFIFPPSDEQLKSGTASVVCLLNNFYPREAKVQWKVDNALQSGNSQESVTEQDSKDSTYSLSSTLTLSKADYEKHKVYACEVTHQGLSSPVTKSFNRGEC DKTHTCPPCPAPEAAGGPSVFLFPPKPKDTLMISRTPEVTCVVVDVSHEDPEVKFNWYVDGVEVHNAKTKPREEQYNSTYRVVSVLTVLHQDWLNGKEYKCKVSNKALPASIEKTISKAKGQPREPQVYTLPPSRDELTKNQVSLSCAVKGFYPSDIAVEWESNGQPENNYKTTPPVLDSDGSFFLVSKLTVDKSRWQQGNVFSCSVMHEALHNHYTQKSLSLSPGK
0.439 nM | 2 nM | 0.341 nM | ~4 nM | 1.25 nM | – | 1.41 fold | 2 nM | 2 nM | ~5 fold | 50 nM | ~10 fold | bivalent anti-MerTK antibody MTK-33.11 LALAPS (antibody, human IgG1, kappa, L234A L235A, V domains shown, Two full-length heavy chains and two full-length light chains, human IgG1 LALAPS; Dylight650-conjugated in the FACS assay; also called MTK-33.11 bivalent LALAPS; MTK-33.11 full IgG) VH: QVQLVQSGAEVKKPGASVKVSCKASGYTFTSYWMHWVRQAPGQGLEWIGVIDPSDNYINYNQKFQGRVTMTRDTSTSTVYMELSSLRSEDTAVYYCAREAWTRGYFDYWGQGTLVTVSS VL: DIQMTQSPSSLSASVGDRVTITCQASRSVRNTVAWYQQKPGKAPKLLIYYASNRYTGVPSRFSGSGSGTDFTFTISSLQPEDIATYYCQQDYRSPFTFGQGTKLEIKR

Reference: US20240279358A1 (Alector, published 2024)
